Data on four molecules can be found in patent publication US20220356228A1 (ICAHN SCHOOL OF MEDICINE AT MOUNT SINAI, published 2022).

Bounds are passed on as bounds.

Experiment [1] addresses T1, JCV VP1 mutant S269F (John Cunningham virus (JCV), UniProt P03089 1-354). Description: cell-based or functional assay.
Experiment [2] deals with T2, JCV VP1 mutant L55F (John Cunningham virus (JCV), UniProt P03089 1-354). Description: cell-based or functional assay.
The target of experiment [3] is T3, JCV major capsid protein VP1, wild type (John Cunningham virus (JCV), UniProt P03089 1-354). Description: cell-based or functional assay.
Experiment [4] deals with T1, JCV VP1 mutant S269F. Description: ELISA, plates coated with pseudovirus, purified antibody.
Experiment [5] has as its target T3, JCV major capsid protein VP1, wild type. Described as above.
The target of experiment [6] is T2, JCV VP1 mutant L55F. The experiment is described as above.

B1: 1E12 (antibody, V domains shown)
VH: QVQLVESGGGLVKPGGSLRLSCTASGFTFSDHYMSWIRQAPGKGLEWVSYISTGGRTIYYADSVKGRFTISRDNAKNSLYLQMNSLRAEDTAVYYCASDYYDNVGWDYWGQGTLVTVSS
VL: DVVLTQSPLSLPVTLGQPASISCRSSQSLIYSDGNTYLNWFQQRPGQSPRRLIYKVSDRDSGVPDRFSGSGSGTDFTLKISRVEAEDVGVYYCMQGTHWPRTFGQGTKVEIK
One may read the EC50 as the concentration that produces a half-maximal response. The low end stands for an effect from little substance, the high end for a need for much substance. In the case of B1, in experiment [1], the “Neutralization of JCV S269F: EC50 [pM]” value came out at 105 pM. Besides, the “Neutralization of JCV L55F: EC50 [pM]” value in experiment [2] was determined as 56.7 pM. Further, in experiment [3], the “Neutralization of wild type JCV, EC50 [pM]” value is 16 pM. Besides, the “AB conc. (lowest concentration of antibody that gave a clear signal above background)” value is < 7.4 ng/mL in experiment [4], < 7.4 ng/mL in experiment [5] and < 2.5 ng/mL in experiment [6]. Besides, the EC50 in experiment [4] was 8.5 ng/mL; in experiment [5], 8.4 ng/mL; in experiment [6], 7.7 ng/mL.

B2: 1G8 (antibody, V domains shown)
VH: QVQLVESGGGLVKPGGSLRLSCAASGFTFSDFYMSWIRQAPGMGLEWVSYISFSGRAIYYADSVRGRFTISRDNAKNSLYLQMNSLSAEDTAVYYCASDYYDNVGWDYWGPGTLVTVSS
VL: not shown
B2: the “Neutralization of JCV S269F: EC50 [pM]” value in experiment [1] was 22.7 pM. Moreover, the “Neutralization of JCV L55F: EC50 [pM]” value in experiment [2] came to 511 pM. Moreover, the “Neutralization of wild type JCV, EC50 [pM]” value in experiment [3] was 144 pM. Besides, the “AB conc. (lowest concentration of antibody that gave a clear signal above background)” value in experiment [4], in experiment [5] and in experiment [6] was < 2.5 ng/mL in each case. In addition, the EC50 in experiment [4] turned out to be 7.7 ng/mL; in experiment [5] it was 7 ng/mL; in experiment [6] it was 16.7 ng/mL.

B3: 2A11 (antibody, V domains shown)
VH: QVQLVESGGGLVKPGGSLRLSCAASGFTFSDHYMSWIRQAPGKGLEWVSYISTSGRTIYYVDSVKGRFTISRDNAKNSLYLQMNSLRAEDMAVYYCASDYYDNVGWNYWGQGALVTVSS
VL: DVVLTQSPLSLPVTLGQPASISCRSSQSLVYSDGNTYLNWFQQRPGQSPRRLIYKVSDRDFGVPDRFSGSGSGTDFTLKISRVEAEDVGIYYCMQGTHWPRTFGQGTKVEIK
Consider B3, for which the “Neutralization of JCV S269F: EC50 [pM]” value in experiment [1] came to 250 pM. Moreover, the “Neutralization of JCV L55F: EC50 [pM]” value in experiment [2] is 45.5 pM. In experiment [3], the “Neutralization of wild type JCV, EC50 [pM]” value came out at 146 pM. For the same molecule, the “AB conc. (lowest concentration of antibody that gave a clear signal above background)” value was < 2.5 ng/mL in experiment [4], < 7.4 ng/mL in experiment [5] and < 7.4 ng/mL in experiment [6]. Besides, the results for the EC50 in experiment [4], in experiment [5] and in experiment [6] were 6.8 ng/mL, 7.4 ng/mL and 13.6 ng/mL, respectively.

B4: 1F11 (antibody, V domains shown)
VH: QVQLVESGGGLVKPGGSLRLSCAASGFTFSDLYMSWIRQAPGKGLEWVSYISTSGRTIYYADSVKGRFTISRDNAKNSLYLQMNSLRAEDTAVYYCAGDYYDNSGWDYWGRGTLVTVSS
VL: not shown
As to B4, in experiment [1], the “Neutralization of JCV S269F: EC50 [pM]” value was 53 pM. For the same molecule, the “Neutralization of JCV L55F: EC50 [pM]” value in experiment [2] was 76 pM. Besides, the “Neutralization of wild type JCV, EC50 [pM]” value in experiment [3] is 111 pM. The “AB conc. (lowest concentration of antibody that gave a clear signal above background)” value was < 2.5 ng/mL in experiment [4], < 7.4 ng/mL in experiment [5] and < 7.4 ng/mL in experiment [6]. The results for the EC50 in experiment [4], in experiment [5] and in experiment [6] were 7.6 ng/mL, 9.4 ng/mL and 14.3 ng/mL, respectively.
